From patent publication US20080096223A1

Experiments:
[1] = target: VWF in human whole blood of healthy volunteers (human) (UniProt P04275); assay: cell-based or functional assay
[2] = target: reference Nanobody (in accordance with WO 04/062551); assay: competition ELISA: soluble ristocetin-preincubated wt-VWF at equal molar concentration against 62.5 nM biotinylated reference Nanobody on immobilized VWF

| platelet coverage [1] | percent reduction of binding [2] | Substance |
| --- | --- | --- |
| 67.8% | – | GpIbα on platelets (from UniProt P07359 17-652) (receptor) |
| – | 90% | wt-VWF preincubated with 1 mg/ml ristocetin (ristocetin-activated VWF) (from UniProt P04275 764-2813) |
